Data published in publication PMC11173892.

Target: recombinant human paraoxonase 2 (rPON2) (human) (UniProt Q15165)
Assay: SEC; Hi-Load 26/600 Superdex 75, renaturing buffer (20 mM Hepes pH 8.5, 0.5 mM CaCl2, 0.1% trehalose), 1.5 mL/min, pooled Ni-NTA fractions of refolded rPON2; calibrated with gel filtration markers; dimer to monomers

Substance: recombinant human paraoxonase 2 (rPON2) (from UniProt Q15165 1-354) (enzyme)
- stoichiometry N: 2
